The values below come from paper PMC11879436, “VvARF19 represses VvLBD13-mediated cell wall degradation to delay softening of grape berries”.

The series has as its target T1, VvLBD13 (Vitis vinifera cv. Shine Muscat, UniProt D7SJL6 27-229).
T1 sequence: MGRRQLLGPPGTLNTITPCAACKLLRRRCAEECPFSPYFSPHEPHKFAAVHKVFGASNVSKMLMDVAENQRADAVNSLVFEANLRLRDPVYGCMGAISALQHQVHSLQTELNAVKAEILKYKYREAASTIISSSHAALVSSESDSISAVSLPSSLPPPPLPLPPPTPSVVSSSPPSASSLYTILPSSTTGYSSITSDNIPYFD
Description: EMSA; with unlabeled cold probe competition; EMSA kit (Thermo 20148), 25 C, 30 min; buffer, salt and pH not stated. To be noted: protein: recombinant; tags: His (pET-32a(+)); chain copies: 2; label: 5' biotin; blunt.

B1: VvEXPLA1 promoter probe (dsDNA)
DNA 1: AATAGAGAAGCCCACACGTGAGCAA
DNA 2: TTGCTCACGTGTGGGCTTCTCTATT
For B1, the binding result was “binds”.

B2: VvXTH10 promoter probe (dsDNA)
DNA 1: TCGAGTGTTGCGGCTTTGAAAAATA
DNA 2: TATTTTTCAAAGCCGCAACACTCGA
With B2, the binding result is on record as “binds”.
